Patent US20240401239A1 (US Dept. of Health and Human Services, published 2024)
Read-outs that look alike come from different tables or passages of the source.

Columns and labels:
[1] = molecular target: T1, RBD-His (SinoBiological, 40592-V08H) (SARS-COV-2, UniProt P0DTC2 319-541)
[2] = molecular target: SARS-COV-2 S protein, variant B1.1.7 (Alpha), on MLV pseudotyped particles (SARS-COV-2, UniProt P0DTC2 14-1254); assay: cell-based or functional assay
[3] = molecular target: T1, RBD-His (SinoBiological, 40592-V08H); remark: listed apart in the source
[4] = molecular target: T2, RBD-mFc recombinant protein (Sino Biological, 40592-V05H) (SARS-COV-2, UniProt P0DTC2 319-541); assay: BLI (Octet), 1-2G-Fc as load, RBD-mFc as analyte, global fit (FIG. 11A)
T2 construct: domain: RBD

[5] = molecular target: T1, RBD-His (SinoBiological, 40592-V08H); remark: listed apart in the source
[6] = molecular target: T2, RBD-mFc recombinant protein (Sino …); assay: BLI (Octet), RBD-mFc as load, 1-2G-Fc as analyte, global fit (FIG. 11C)
[7] = molecular target: T1, RBD-His (SinoBiological, 40592-V08H); remark: listed apart in the source
[8] = molecular target: T1, RBD-His (SinoBiological, 40592-V08H)
[9] = molecular target: T3, S1-hFc recombinant protein (Sino Biological, printed 4059I-V02H) (SARS-COV-2, UniProt P0DTC2 16-685)
[10] = molecular target: T2, RBD-mFc recombinant protein (Sino …)
[11] = molecular target: T3, S1-hFc recombinant protein (Sino …); remark: listed apart in the source
[12] = molecular target: T2, RBD-mFc recombinant protein (Sino …); remark: listed apart in the source

Binder	koff [1]	kon [1]	IC50, pseudotyped particle entry assay, B.1.1.7 particles [2]	Kd [3]	koff [4]	kon [4]	koff [5]	kon [5]	koff [6]	kon [6]	koff [7]	kon [7]	Kd [8]	koff [9]	kon [9]	koff [10]	kon [10]	Kd [11]	Kd [12]
RBD-1-2G-Tri (bispecific antibody) EVQLVESGGGLVQPGGSLRLSCAASGFSSIVYMGWFRQAPGKGRELVAAIDASGSTTNYPDSVEGRFTISRDNAKRMVYLQMNSLRAEDTAVYYCAIAYFTSPEYVVSQGWGQGTQVTVSSGGGGSGGGGSGGGGSEVQLVESGGGLVQPGGSLRLSCAASGFSSIVYMGWFRQAPGKGRELVAAIDASGSTTNYPDSVEGRFTISRDNAKRMVYLQMNSLRAEDTAVYYCAIAYFTSPEYVVSQGWGQGTQVTVSSGGGGSGGGGSGGGGSEVQLVESGGGLVQPGGSLRLSCAASGFSSIVYMGWFRQAPGKGRELVAAIDASGSTTNYPDSVEGRFTISRDNAKRMVYLQMNSLRAEDTAVYYCAIAYFTSPEYVVSQGWGQGTQVTVSSHHHHHH	7e-05 s⁻¹	600000 M⁻¹ s⁻¹	0.3 nM	0.1 nM	–	–	–	–	–	–	–	–	–	–	–	–	–	–	–
RBD-1-2G-Fc (Fc fusion, also called bivalent format of RBD-1-2G) EVQLVESGGGLVQPGGSLRLSCAASGFSSIVYMGWFRQAPGKGRELVAAIDASGSTTNYPDSVEGRFTISRDNAKRMVYLQMNSLRAEDTAVYYCAIAYFTSPEYVVSQGWGQGTQVTVSS	–	–	17.5 nM	1.9 nM	0.0017 s⁻¹	83000 M⁻¹ s⁻¹	0.00018 s⁻¹	91000 M⁻¹ s⁻¹	0.0005 s⁻¹	73000 M⁻¹ s⁻¹	–	–	–	–	–	–	–	–	–
single-domain antibody RBD-1-2G (VHH, also called RBD-1-2G Nb; RBD-1-2G nanobody) VHH: EVQLVESGGGLVQPGGSLRLSCAASGFSSIVYMGWFRQAPGKGRELVAAIDASGSTTNYPDSVEGRFTISRDNAKRMVYLQMNSLRAEDTAVYYCAIAYFTSPEYVVSQGWGQGTQVTVSS	–	–	746 nM	–	–	–	–	–	–	–	0.0011 s⁻¹	752000 M⁻¹ s⁻¹	14.3 nM	0.0002 s⁻¹	29500 M⁻¹ s⁻¹	0.00024 s⁻¹	25400 M⁻¹ s⁻¹	6.9 nM	9.4 nM
